Results on one molecule are retold here after patent US12187785B2, “Recombinant protein and fragments thereof, method for producing said recombinant protein, synthetic gene and use of sculptin or recombinant protein for preparing a medicament or pharmaceutical composition for the prophylaxis and/or treatment of thromboembolic diseases or as a direct and specific …” (priority 2017, dated 2025).

Assay [1] addresses T1, plasmin (Homo sapiens, UniProt P00747).
T1 construct: Serine protease (100 pM; thrombin, plasmin, trypsin or factor Xa) was incubated with recombinant protein
Description: Degradation of recombinant protein by plasmin (SDS-PAGE and residual thrombin inhibition). It counts as in vitro ADME. As to the method:
(§1) Recombinant protein (10 μM) was incubated with or without serine protease 1 μM (thrombin, plasmin, trypsin or factor Xa) in phosphate buffer 50 mM containing NaCl 150 mM and 0.1% of PEG 6000, pH 7.4 for 4, 6, 7 or 18 h at 37° C. Reaction mixtures (20 μl) were split by SDS-PAGE. (A) hydrolysis SDS-PAGE (15%) of recombinant protein by serine proteases following 6 h of incubation. (B) Percentage of thrombin inhibition by recombinant protein following 6 h of incubation with serine protease (see experimental procedures). (C) hydrolysis SDS-PAGE (15%) of recombinant protein by serine proteases following 18 h of incubation. (D) Percentage of thrombin inhibition by recombinant protein following 18 h of incubation with serine protease (see experimental procedures). Numbering of (B) and (D) corresponds to numbering of (A) and (C), respectively, and recombinant protein control is represented by CTRL. Recombinant protein (strip 1); thrombin (strip 2) and thrombin with recombinant protein (strip 3); plasmin (strip 4) and plasmin with recombinant protein (strip 5); trypsin (strip 6) and trypsin with recombinant protein (strip 7); factor Xa (strip 8) and factor Xa with recombinant protein (strip 9) and protein marker (strip 10; in A). (E) Identification of cleavage sites of thrombin in recombinant protein following 7 h of incubation. (F) Identification of cleavage sites of factor Xa in recombinant protein following 4 h of incubation. Cleavage sites of thrombin and factor Xa in recombinant protein sequence are shown in FIGS. S1 and S2, respectively. Experimental procedure for (C), (D), (E) and (F) was the same as for (A) and (B), except the incubation time and the type of serine protease used. FIG. 5 discloses “GKPQG” as SEQ ID NO: 18, “MPKGG” as SEQ ID NO: 19, and “SDAVH” as SEQ ID NO: 20.
(§2) Afterwards, it was determined whether serine proteases, like thrombin, plasmin, factor Xa and trypsin, hydrolyze recombinant protein. […] Upon addition of chromogenic substrate S-2238, the hydrolysis thereof by thrombin was monitored in spectrophotometer way. […]

In assay [2] the target is T2, factor Xa (Homo sapiens, UniProt P00742).
T2 construct: Serine protease (100 pM; thrombin, plasmin, trypsin or factor Xa) was incubated with recombinant protein; For factor Xa activity, buffer contained phosphatidylserine and phosphatidylcholine 50 μM
Description: Serine protease inhibition test, factor Xa (chromogenic substrate). Conditions: recombinant protein 1, 100, 200 nM; protease 100 pM; 6 h at 37° C. In kind it is biochemical. The protocol: (§3) (A) Inhibition of serine proteases through recombinant protein. Serine protease (100 pM; thrombin, plasmin, trypsin or factor Xa) was incubated with recombinant protein (1, 100 and 200 nM) in phosphate buffer 50 mM containing NaCl 150 mM and 0.1% of PEG 6000, pH 7.4 for 6 h at 37° C. Following addition of chromogenic substrate corresponding to reaction mixture, hydrolysis thereof was monitored at 405 nm. For factor Xa activity, buffer contained phosphatidylserine and phosphatidylcholine 50 μM. […] (B) Typical curves for hydrolysis of chromogenic substrate S-2238 (15 μM) by thrombin 0.1 nM in absence (trace a) or presence of recombinant protein (trace b, 15 pM; trace c, 30 pM; trace d, 60 pM and trace e, 100 pM) in phosphate buffer 50 mM containing NaCl 150 mM and 0.1% of PEG 6000, pH 7.4 at 37° C. (C) Residual activity of thrombin in presence of increasing concentration of recombinant protein. (D) Dose-response curves for thrombin inhibition by recombinant protein. Percentage of thrombin inhibition was plotted versus the concentration record of recombinant protein. Experimental condition of (C) and (D) is the same as in (B).
(§4) The first performed experiment was the test of serine proteases inhibition through recombinant protein. […] Hydrolysis of a chromogenic substrate through serine proteases in the presence and absence of recombinant protein was monitored in a spectrophotometer way. […]

Assay [3] has as its target T2, factor Xa. Description: Degradation of recombinant protein by factor Xa (SDS-PAGE and residual thrombin inhibition). It counts as in vitro ADME. Conditions: for thrombin inhibition after incubation: diluted to 100 pM. The protocol:
as §1
Afterwards, it was determined whether serine proteases, like thrombin, plasmin, factor Xa and trypsin, hydrolyze recombinant protein. For this purpose, recombinant protein (10 μM) was incubated with or without serine protease 1 μM (thrombin, plasmin, trypsin or factor Xa) in phosphate buffer 50 mM containing NaCl 150 mM and 0.1% of PEG, pH 7.4 for 6 h or 18 h at 37° C. SDS-PAGE of reaction mixture following 6 h of incubation presented that, compared to control strip of recombinant protein, strip intensity of 20-kDa (corresponding to non-digested recombinant protein) decreased and strips of lower molecular weight appeared in recombinant protein incubated by thrombin (FIG. 5A). […] Upon addition of chromogenic substrate S-2238, the hydrolysis thereof by thrombin was monitored in spectrophotometer way. […]

Assay [4] concerns isolated human plasma. Description: Thrombin time (TT) in isolated human plasma. It counts as biochemical. Conditions: plasma of healthy human volunteers, incubation 3 min. at 37° C. As to the method: (§5) Plasma was obtained from blood of healthy human volunteer and incubated with different concentrations of recombinant protein. APTT, PT and TT were determined like experimental procedure. (A) Activated partial thromboplastin time (B) prothrombin time and (C) thrombin time. Ctrl is related to plasma and Sal is related to plasma plus saline.
(§6) Finally, PT, aPTT and TT were assessed in isolated plasma of healthy human volunteers following incubation with recombinant protein for 3 min. at 37° C. […] Maximum test reading for aPTT was achieved following 12 nM, while for PT that was achieved following 6 nM of recombinant protein (FIGS. 11A and 11B).

For assay [5], the target named is thrombin (Homo sapiens, UniProt P00734). Description: Degradation of recombinant protein by thrombin (SDS-PAGE and residual thrombin inhibition). Further details: Brown and cyan colors represent heavy and light chain of thrombin respectively. It counts as in vitro ADME. The protocol: as §1, §2
For assay [6], the system named is isolated human plasma. Description: Prothrombin time (PT) in isolated human plasma. Conditions: plasma of healthy human volunteers, incubation 3 min. at 37° C. In kind it is biochemical. As to the method:
as §5, §6

The target of assay [7] is T1, plasmin. Description: Serine protease inhibition test, plasmin (chromogenic substrate). In kind it is biochemical. Conditions: recombinant protein 1, 100, 200 nM; protease 100 pM; 6 h at 37° C. The protocol: as §3, §4

T1 sequence (P00747 581-810 limits assumed, species assumed): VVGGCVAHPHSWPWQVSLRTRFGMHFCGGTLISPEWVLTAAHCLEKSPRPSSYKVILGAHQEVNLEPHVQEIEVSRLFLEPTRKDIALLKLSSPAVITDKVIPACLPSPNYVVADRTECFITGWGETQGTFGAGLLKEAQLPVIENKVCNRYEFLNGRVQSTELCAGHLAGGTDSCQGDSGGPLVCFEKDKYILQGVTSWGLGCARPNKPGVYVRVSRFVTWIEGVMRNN
T1 sequence (P00747 97-580 limits assumed, species assumed): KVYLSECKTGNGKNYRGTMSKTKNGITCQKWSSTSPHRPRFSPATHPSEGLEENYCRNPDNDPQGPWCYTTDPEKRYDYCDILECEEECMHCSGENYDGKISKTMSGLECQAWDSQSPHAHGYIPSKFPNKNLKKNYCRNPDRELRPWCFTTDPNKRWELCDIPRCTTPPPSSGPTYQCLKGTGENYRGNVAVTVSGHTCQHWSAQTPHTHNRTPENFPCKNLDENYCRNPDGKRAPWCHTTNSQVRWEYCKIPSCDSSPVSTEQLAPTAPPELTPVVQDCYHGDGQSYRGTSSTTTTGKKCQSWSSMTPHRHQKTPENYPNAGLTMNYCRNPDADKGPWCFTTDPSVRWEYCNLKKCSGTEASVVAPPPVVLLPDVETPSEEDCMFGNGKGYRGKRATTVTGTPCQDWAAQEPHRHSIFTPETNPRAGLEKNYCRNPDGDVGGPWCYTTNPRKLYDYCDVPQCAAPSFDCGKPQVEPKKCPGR
T2 sequence (P00742 235-488 limits assumed): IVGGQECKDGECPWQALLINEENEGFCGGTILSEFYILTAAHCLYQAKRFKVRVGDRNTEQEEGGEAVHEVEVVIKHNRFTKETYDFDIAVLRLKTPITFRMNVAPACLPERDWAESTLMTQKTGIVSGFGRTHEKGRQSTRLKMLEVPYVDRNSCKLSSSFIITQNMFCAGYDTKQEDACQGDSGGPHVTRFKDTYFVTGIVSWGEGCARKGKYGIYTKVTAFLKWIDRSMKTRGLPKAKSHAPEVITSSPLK
T2 sequence (P00742 41-179 limits assumed): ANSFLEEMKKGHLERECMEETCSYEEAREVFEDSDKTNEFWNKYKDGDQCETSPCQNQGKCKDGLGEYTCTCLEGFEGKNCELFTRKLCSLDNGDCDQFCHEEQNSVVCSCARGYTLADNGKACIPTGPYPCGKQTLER

B1: GKPQGHPHDALEARSDAVHTAVPKMPKGGHGGFEPIPIDYDERALEARSDAVHTAVPKMPKGGLGGFEPIPIDYDERALEARSDAVHTAVPKMPKGGHGGFEPIPIDYDERALEARSDAVHTAVPKMPKGGHGGFEPIPIDYDERALHALEHHHHHH (protein)
chain: GKPQGHPHDALEARSDAVHTAVPKMPKGGHGGFEPIPIDYDERALEARSDAVHTAVPKMPKGGLGGFEPIPIDYDERALEARSDAVHTAVPKMPKGGHGGFEPIPIDYDERALEARSDAVHTAVPKMPKGGHGGFEPIPIDYDERALHALEHHHHHH
modifications: Sculptin recombinat protein
notes: recombinant His-tagged protein modified from tick sculptin, expressed in E. coli
With B1, the “SDS-PAGE strip of 20-kDa (non-digested recombinant protein)” value in assay [1] (10 μM protein with 1 μM plasmin, 6 h at 37° C.) is reported as “completely disappeared”. In addition, the “SDS-PAGE strip of 20-kDa (recombinant protein monomer)” value is on record as “completely disappeared” in assay [1] (10 μM protein with 1 μM plasmin, 18 h at 37° C.); “completely disappeared” in assay [3] (10 μM protein with 1 μM factor Xa, 18 h at 37° C.); “completely disappeared” in assay [5] (10 μM protein with 1 μM thrombin, 18 h at 37° C.). Moreover, the “thrombin inhibition after incubation” value is given as “did not inhibit thrombin” in assay [1] (after 18 h incubation with plasmin, diluted to 100 pM); “retained its thrombin inhibition activity” in assay [3] (after 6 h digestion with factor Xa, thrombin 100 pM); “even inhibited the thrombin activity” in assay [3] (after 18 h incubation with factor Xa); “did not inhibit thrombin” in assay [5] (after 18 h incubation with thrombin, diluted to 100 pM). In assay [2], the “inhibition of factor Xa” value was “did not inhibit”. In assay [3] (10 μM protein with 1 μM factor Xa, 6 h at 37° C.), the “SDS-PAGE, hydrolysis of recombinant protein” value is reported as “converted the recombinant protein in fragments”. In assay [4], the TT result was “prolonged by recombinant protein in peak-molar range”. Further, the “SDS-PAGE strip intensity of 20-kDa (non-digested recombinant protein)” value in assay [5] (10 μM protein with 1 μM thrombin, 6 h at 37° C.) was “decreased”. The PT result in assay [6] is recorded as “prolonged by recombinant protein in concentration-dependent way”. For the same molecule, in assay [6], the “concentration at which maximum test reading for PT was achieved” value turned out to be 6 nM. Further, in assay [7], the inhibition of plasmin result is recorded as “did not inhibit”.
